Among the data in patent EP4335864A1 are amount of protein for full IFN neutralization, against B18 values, retold here.

The target of the experiment is recombinant murine IFN-α subtype A (murine). Briefly: cell-based or functional assay.
Sequence of recombinant murine IFN-α subtype A (murine) (P01573 24-190): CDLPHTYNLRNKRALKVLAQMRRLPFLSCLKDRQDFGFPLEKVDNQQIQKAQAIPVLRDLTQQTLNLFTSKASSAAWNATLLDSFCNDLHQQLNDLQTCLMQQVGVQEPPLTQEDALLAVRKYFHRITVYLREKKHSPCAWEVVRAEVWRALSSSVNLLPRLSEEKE

As to “D3 immunoglobulin-like domain of vaccinia virus B18 protein, 6xHis tagged, expressed in bacteria (from UniProt P21077 254-353) (receptor)”, the amount of protein for full IFN neutralization, against B18 turned out to be 1.
